{"source": "patent US20130209454A1", "binders": {"B1": {"name": "NIH45-46^G54W (antibody, V domains shown)", "VH": "QVRLSQSGGQMKKPGESMRLSCRASGYEFLNCPINWIRLAPGRRPEWMGWLKPRWGAVNYARKFQGRVTMTRDVYSDTAFLELRSLTSDDTAVYFCTRGKYCTARDYYNWDFEHWGRGAPVTVSS", "VL": "EIVLTQSPATLSLSPGETAIISCRTSQSGSLAWYQQRPGQAPRLVIYSGSTRAAGIPDRFSGSRWGADYNLSISNLESGDFGVYYCQQYEFFGQGTKVQVDI"}}, "assay_in_all_cases": "cell-based or functional assay", "key": {"[1]": {"biological_target": "Env of HIV-1 strain 6545.v4.c1 (HIV-1)"}, "[2]": {"biological_target": "Env of HIV-1 strain CAAN5342.A2 (HIV-1)"}, "[3]": {"biological_target": "Env of HIV-1 strain CAP210.2.00.E8 (HIV-1)"}, "[4]": {"biological_target": "HIV-1 Env of strain Q842.d12 (HIV-1)"}, "[5]": {"biological_target": "Env of HIV-1 strain C2101.c01 (HIV-1)"}, "[6]": {"biological_target": "HIV-1 Env of strain C3347.c11 (HIV-1)"}, "[7]": {"biological_target": "Env of HIV-1 strain X2131_C1_B5 (HIV-1)"}, "[8]": {"biological_target": "Env of HIV-1 strain Du422.1 (HIV-1)"}, "[9]": {"biological_target": "Env of HIV-1 strain ZM197M.PB7 (HIV-1)"}, "[10]": {"biological_target": "Env of HIV-1 strain SC05_8C11_2344 (HIV-1)"}, "[11]": {"biological_target": "HIV-1 Env of strain Ce1176_A3 (HIV-1)"}, "[12]": {"biological_target": "Env of HIV-1 strain A07412M1.vrc12 (HIV-1)"}, "[13]": {"biological_target": "Env of HIV-1 strain X1254_c3 (HIV-1)"}, "[14]": {"biological_target": "Env of HIV-1 strain PVO.4 (HIV-1)"}, "[15]": {"biological_target": "Env of HIV-1 strain ZM135M.PL10a (HIV-1)"}, "[16]": {"biological_target": "Env of HIV-1 strain Q259.d2.17 (HIV-1)"}, "[17]": {"biological_target": "Env of HIV-1 strain 9004SS_A3_4 (HIV-1)"}, "[18]": {"biological_target": "HIV-1 Env of strain ZM233M.PB6 (HIV-1)"}, "[19]": {"biological_target": "Env of HIV-1 strain Q769.d22 (HIV-1)"}, "[20]": {"biological_target": "HIV-1 Env of strain Ce1086_B2 (HIV-1)"}, "[21]": {"biological_target": "Env of HIV-1 strain 1056_10_TA11_1826 (HIV-1)"}, "[22]": {"biological_target": "Env of HIV-1 strain ZM214M.PL15 (HIV-1)"}, "[23]": {"biological_target": "HIV-1 Env of strain Du172.17 (HIV-1)"}, "[24]": {"biological_target": "Env of HIV-1 strain 0815.v3.c3 (HIV-1)"}, "[25]": {"biological_target": "Env of HIV-1 strain T251-18 (HIV-1)"}, "[26]": {"biological_target": "Env of HIV-1 strain 7030102001E5(Rev-) (HIV-1)"}, "[27]": {"biological_target": "Env of HIV-1 strain CAP45.2.00.G3 (HIV-1)"}, "[28]": {"biological_target": "Env of HIV-1 strain CNE21 (HIV-1)"}, "[29]": {"biological_target": "Env of HIV-1 strain R1166.c01 (HIV-1)"}, "[30]": {"biological_target": "HIV-1 Env of strain HIV-001428-2.42 (HIV-1)"}, "[31]": {"biological_target": "Env of HIV-1 strain C4118.c09 (HIV-1)"}, "[32]": {"biological_target": "Env of HIV-1 strain BJOX010000.06.2 (HIV-1)"}, "[33]": {"biological_target": "Env of HIV-1 strain BJOX025000.01.1 (HIV-1)"}, "[34]": {"biological_target": "HIV-1 Env of strain CNE30 (HIV-1)"}, "[35]": {"biological_target": "Env of HIV-1 strain X1193_c1 (HIV-1)"}, "[36]": {"biological_target": "Env of HIV-1 strain 6811.v7.c18 (HIV-1)"}}}
{"binder": "B1", "values": [{"measurement": "IC80", "setting": "[1]", "value": "> 50", "unit": "µg/mL"}, {"measurement": "IC80", "setting": "[2]", "value": 0.21, "unit": "µg/mL"}, {"measurement": "IC80", "setting": "[3]", "value": "> 50", "unit": "µg/mL"}, {"measurement": "IC50, pseudovirus neutralization", "setting": "[4]", "value": 0.005, "unit": "µg/mL"}, {"measurement": "IC80", "setting": "[5]", "value": 0.17, "unit": "µg/mL"}, {"measurement": "IC50, pseudovirus neutralization", "setting": "[6]", "value": 0.001, "unit": "µg/mL"}, {"measurement": "IC80", "setting": "[7]", "value": 0.24, "unit": "µg/mL"}, {"measurement": "IC80", "setting": "[8]", "value": "> 50", "unit": "µg/mL"}, {"measurement": "IC80", "setting": "[9]", "value": 0.18, "unit": "µg/mL"}, {"measurement": "IC80", "setting": "[10]", "value": 0.2, "unit": "µg/mL"}, {"measurement": "IC50, pseudovirus neutralization", "setting": "[11]", "value": 0.16, "unit": "µg/mL"}, {"measurement": "IC80", "setting": "[12]", "value": 0.042, "unit": "µg/mL"}, {"measurement": "IC80", "setting": "[13]", "value": 0.018, "unit": "µg/mL"}, {"measurement": "IC80", "setting": "[14]", "value": 0.16, "unit": "µg/mL"}, {"measurement": "IC80", "setting": "[15]", "value": 0.16, "unit": "µg/mL"}, {"measurement": "IC80", "setting": "[16]", "value": 0.014, "unit": "µg/mL"}, {"measurement": "IC80", "setting": "[17]", "value": 0.28, "unit": "µg/mL"}, {"measurement": "IC50, pseudovirus neutralization", "setting": "[18]", "value": 0.02, "unit": "µg/mL"}, {"measurement": "IC80", "setting": "[19]", "value": 0.009, "unit": "µg/mL"}, {"measurement": "IC50, pseudovirus neutralization", "setting": "[20]", "value": 0.019, "unit": "µg/mL"}, {"measurement": "IC80", "setting": "[21]", "value": 0.16, "unit": "µg/mL"}, {"measurement": "IC80", "setting": "[22]", "value": 0.15, "unit": "µg/mL"}, {"measurement": "IC50, pseudovirus neutralization", "setting": "[23]", "value": 3.65, "unit": "µg/mL"}, {"measurement": "IC80", "setting": "[24]", "value": 0.003, "unit": "µg/mL"}, {"measurement": "IC80", "setting": "[25]", "value": 0.92, "unit": "µg/mL"}, {"measurement": "IC80", "setting": "[26]", "value": 0.228, "unit": "µg/mL"}, {"measurement": "IC80", "setting": "[27]", "value": "> 50", "unit": "µg/mL"}, {"measurement": "IC80", "setting": "[28]", "value": 0.16, "unit": "µg/mL"}, {"measurement": "IC80", "setting": "[29]", "value": 0.51, "unit": "µg/mL"}, {"measurement": "IC50, pseudovirus neutralization", "setting": "[30]", "value": 0.001, "unit": "µg/mL"}, {"measurement": "IC80", "setting": "[31]", "value": 0.087, "unit": "µg/mL"}, {"measurement": "IC80", "setting": "[32]", "value": 4.5, "unit": "µg/mL"}, {"measurement": "IC80", "setting": "[33]", "value": 0.135, "unit": "µg/mL"}, {"measurement": "IC50, pseudovirus neutralization", "setting": "[34]", "value": 0.052, "unit": "µg/mL"}, {"measurement": "IC80", "setting": "[35]", "value": 0.009, "unit": "µg/mL"}, {"measurement": "IC80", "setting": "[36]", "value": 0.033, "unit": "µg/mL"}]}
